# B1: Arabidopsis thaliana profilin-2 (AtPFN2), recombinant (natural protein, UniProt Q42418 1-131, looked up)
# chain: MSWQSYVDDHLMCEVEGNHLTHAAIFGQDGSVWAQSSAFPQLKPAEIAGINKDFEEAGHLAPTGLFLGGEKYMVVQGEAGAVIRGKKGPGGVTIKKTTQALVFGIYDEPMTGGQCNLVVERLGDYLIESGL
# notes: Profilin-2 (AtPFN2) of Arabidopsis thaliana, amplified by PCR from an A. thaliana cDNA library; single band of 14 kDa on SDS-PAGE; Homo-oligomer of various sizes; The vector pET28(a) probably adds the His tag; no removal of the tag is told; also called Arabidopsis PFN2; source: E. coli BL21 (DE3), pET28(a), purified (HisPur cobalt resin, imidazole elution; SEC)
# Molecular target: the molecule itself
# Assay: native gel or EMSA; 10% native PAGE with silver staining; concentration-dependent aliquots of recombinant protein, incubated at 25 °C for 30 min and centrifuged at 13,000 x g for 15 min
protein,measurement,value
B1,binding result,binds

# From PMC9504416, “Functional Characterization of an Arabidopsis Profilin Protein as a Molecular Chaperone under Heat Shock Stress” (Molecules, 2022)
